Test results reported in IntAct's records for PubMed 12626503.

B1: Rho guanine nucleotide exchange factor 7 (Mus musculus), Q9ES28-2 (parent)
chain: MNSAEQTVTWLITLGVLESPKKTISDPEVFLQASLKDGVVLCRLLERLLPGTIEKVYPEPRNESECLSNIREFLRACGASLRLETFDANDLYQGQNFNKVLSSLVTLNKVTADIGLGSDSVCARPSSHRIKSFDSLGSQSSHSRTSKLLQSQYRSLDMTDNTNSQLVVRAKFNFQQTNEDELSFSKGDVIHVTRVEEGGWWEGTHNGRTGWFPSNYVREIKPSEKPVSPKSGTLKSPPKGFDTTAINKSYYNVVLQNILETEHEYSKELQSVLSTYLRPLQTSDKLSSANTSYLMGNLEEISSFQQVLVQSLEECTKSPEAQQRVGGCFLSLMPQMRTLYLAYCANHPSAVSVLTEHSEDLGEFMETKGASSPGILVLTTGLSKPFMRLDKYPTLLKELERHMEDYHPDRQDIQKSMTAFKNLSAQCQEVRKRKELELQILTEPIRSWEGDDIKTLGSVTYMSQVTIQCAGSEEKNERYLLLFPNLLLMLSASPRMSGFIYQGKLPTTGMTITKLEDSENHRNAFEISGSMIERILVSCTSQQDLHEWVEHLQKQTKVTSVSNPTIKPHSVPSHTLPSHPLTPSSKHADSKPVALTPAYHTLPHPSHHGTPHTTISWGPLEPPKTPKPWSLSCLRPAPPLRPSAALCYKEDLSKSPKTMKKLLPKRKPERKPSDEEFAVRKSTAALEEDAQILKVIEAYCTSAKTRQTLNSSSRKESAPQVLLPEEEKIIVEETKSNGQTVIEEKSLVDTVYALKDEVQELRQDNKKMKKSLEEEQRARKDLEKLVRKVLKNMNDPAWDETNL
partner: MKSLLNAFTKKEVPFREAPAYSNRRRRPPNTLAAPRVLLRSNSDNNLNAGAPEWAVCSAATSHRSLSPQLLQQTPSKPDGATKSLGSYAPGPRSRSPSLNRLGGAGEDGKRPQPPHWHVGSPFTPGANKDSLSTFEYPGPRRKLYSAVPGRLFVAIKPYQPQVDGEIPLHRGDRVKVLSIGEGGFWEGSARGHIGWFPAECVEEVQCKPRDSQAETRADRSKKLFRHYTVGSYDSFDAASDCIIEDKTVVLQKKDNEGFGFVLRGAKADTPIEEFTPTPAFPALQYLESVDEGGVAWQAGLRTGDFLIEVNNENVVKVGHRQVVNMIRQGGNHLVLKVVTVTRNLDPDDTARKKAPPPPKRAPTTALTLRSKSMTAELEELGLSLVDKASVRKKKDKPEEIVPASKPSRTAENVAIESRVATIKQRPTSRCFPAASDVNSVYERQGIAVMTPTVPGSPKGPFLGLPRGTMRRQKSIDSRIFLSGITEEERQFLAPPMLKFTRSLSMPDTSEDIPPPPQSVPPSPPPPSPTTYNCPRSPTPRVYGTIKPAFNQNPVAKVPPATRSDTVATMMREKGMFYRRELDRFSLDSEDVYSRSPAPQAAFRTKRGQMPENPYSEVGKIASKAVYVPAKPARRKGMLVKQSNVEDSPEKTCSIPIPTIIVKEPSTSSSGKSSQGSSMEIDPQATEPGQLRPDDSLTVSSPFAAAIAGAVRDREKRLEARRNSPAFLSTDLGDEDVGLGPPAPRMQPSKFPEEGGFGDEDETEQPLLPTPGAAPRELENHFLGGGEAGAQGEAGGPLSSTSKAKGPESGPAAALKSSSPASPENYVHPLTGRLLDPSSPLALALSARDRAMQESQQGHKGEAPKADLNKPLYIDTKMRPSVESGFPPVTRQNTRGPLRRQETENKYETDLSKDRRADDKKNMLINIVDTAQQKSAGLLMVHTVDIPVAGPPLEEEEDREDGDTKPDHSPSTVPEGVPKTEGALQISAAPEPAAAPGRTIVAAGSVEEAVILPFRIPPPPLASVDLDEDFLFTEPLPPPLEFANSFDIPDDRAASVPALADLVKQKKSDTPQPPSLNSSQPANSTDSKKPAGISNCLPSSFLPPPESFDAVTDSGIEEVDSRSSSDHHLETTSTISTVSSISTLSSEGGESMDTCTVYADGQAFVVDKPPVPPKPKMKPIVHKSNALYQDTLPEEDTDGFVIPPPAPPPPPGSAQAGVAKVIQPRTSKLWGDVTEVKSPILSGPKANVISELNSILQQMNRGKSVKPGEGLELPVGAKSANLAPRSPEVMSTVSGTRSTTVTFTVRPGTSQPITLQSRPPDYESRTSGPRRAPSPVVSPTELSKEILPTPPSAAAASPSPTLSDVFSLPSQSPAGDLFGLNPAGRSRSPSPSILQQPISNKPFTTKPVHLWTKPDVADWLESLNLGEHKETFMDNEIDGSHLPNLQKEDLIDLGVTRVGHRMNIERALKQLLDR
B2: Rho guanine nucleotide exchange factor 7 (Mus musculus), Q9ES28-2 (parent)
chain: B1 chain

Variants of: B1
Settings: with shan2_rat Shank2, Q9QX74

| effect of a mutation on the interaction | Variant |
| --- | --- |
| disrupting interaction | L646A |

Variants of: B2
Settings: with shan1_rat Shank1, Q9WV48
shan1_rat Shank1, Q9WV48, sequence (Q9WV48 whole entry): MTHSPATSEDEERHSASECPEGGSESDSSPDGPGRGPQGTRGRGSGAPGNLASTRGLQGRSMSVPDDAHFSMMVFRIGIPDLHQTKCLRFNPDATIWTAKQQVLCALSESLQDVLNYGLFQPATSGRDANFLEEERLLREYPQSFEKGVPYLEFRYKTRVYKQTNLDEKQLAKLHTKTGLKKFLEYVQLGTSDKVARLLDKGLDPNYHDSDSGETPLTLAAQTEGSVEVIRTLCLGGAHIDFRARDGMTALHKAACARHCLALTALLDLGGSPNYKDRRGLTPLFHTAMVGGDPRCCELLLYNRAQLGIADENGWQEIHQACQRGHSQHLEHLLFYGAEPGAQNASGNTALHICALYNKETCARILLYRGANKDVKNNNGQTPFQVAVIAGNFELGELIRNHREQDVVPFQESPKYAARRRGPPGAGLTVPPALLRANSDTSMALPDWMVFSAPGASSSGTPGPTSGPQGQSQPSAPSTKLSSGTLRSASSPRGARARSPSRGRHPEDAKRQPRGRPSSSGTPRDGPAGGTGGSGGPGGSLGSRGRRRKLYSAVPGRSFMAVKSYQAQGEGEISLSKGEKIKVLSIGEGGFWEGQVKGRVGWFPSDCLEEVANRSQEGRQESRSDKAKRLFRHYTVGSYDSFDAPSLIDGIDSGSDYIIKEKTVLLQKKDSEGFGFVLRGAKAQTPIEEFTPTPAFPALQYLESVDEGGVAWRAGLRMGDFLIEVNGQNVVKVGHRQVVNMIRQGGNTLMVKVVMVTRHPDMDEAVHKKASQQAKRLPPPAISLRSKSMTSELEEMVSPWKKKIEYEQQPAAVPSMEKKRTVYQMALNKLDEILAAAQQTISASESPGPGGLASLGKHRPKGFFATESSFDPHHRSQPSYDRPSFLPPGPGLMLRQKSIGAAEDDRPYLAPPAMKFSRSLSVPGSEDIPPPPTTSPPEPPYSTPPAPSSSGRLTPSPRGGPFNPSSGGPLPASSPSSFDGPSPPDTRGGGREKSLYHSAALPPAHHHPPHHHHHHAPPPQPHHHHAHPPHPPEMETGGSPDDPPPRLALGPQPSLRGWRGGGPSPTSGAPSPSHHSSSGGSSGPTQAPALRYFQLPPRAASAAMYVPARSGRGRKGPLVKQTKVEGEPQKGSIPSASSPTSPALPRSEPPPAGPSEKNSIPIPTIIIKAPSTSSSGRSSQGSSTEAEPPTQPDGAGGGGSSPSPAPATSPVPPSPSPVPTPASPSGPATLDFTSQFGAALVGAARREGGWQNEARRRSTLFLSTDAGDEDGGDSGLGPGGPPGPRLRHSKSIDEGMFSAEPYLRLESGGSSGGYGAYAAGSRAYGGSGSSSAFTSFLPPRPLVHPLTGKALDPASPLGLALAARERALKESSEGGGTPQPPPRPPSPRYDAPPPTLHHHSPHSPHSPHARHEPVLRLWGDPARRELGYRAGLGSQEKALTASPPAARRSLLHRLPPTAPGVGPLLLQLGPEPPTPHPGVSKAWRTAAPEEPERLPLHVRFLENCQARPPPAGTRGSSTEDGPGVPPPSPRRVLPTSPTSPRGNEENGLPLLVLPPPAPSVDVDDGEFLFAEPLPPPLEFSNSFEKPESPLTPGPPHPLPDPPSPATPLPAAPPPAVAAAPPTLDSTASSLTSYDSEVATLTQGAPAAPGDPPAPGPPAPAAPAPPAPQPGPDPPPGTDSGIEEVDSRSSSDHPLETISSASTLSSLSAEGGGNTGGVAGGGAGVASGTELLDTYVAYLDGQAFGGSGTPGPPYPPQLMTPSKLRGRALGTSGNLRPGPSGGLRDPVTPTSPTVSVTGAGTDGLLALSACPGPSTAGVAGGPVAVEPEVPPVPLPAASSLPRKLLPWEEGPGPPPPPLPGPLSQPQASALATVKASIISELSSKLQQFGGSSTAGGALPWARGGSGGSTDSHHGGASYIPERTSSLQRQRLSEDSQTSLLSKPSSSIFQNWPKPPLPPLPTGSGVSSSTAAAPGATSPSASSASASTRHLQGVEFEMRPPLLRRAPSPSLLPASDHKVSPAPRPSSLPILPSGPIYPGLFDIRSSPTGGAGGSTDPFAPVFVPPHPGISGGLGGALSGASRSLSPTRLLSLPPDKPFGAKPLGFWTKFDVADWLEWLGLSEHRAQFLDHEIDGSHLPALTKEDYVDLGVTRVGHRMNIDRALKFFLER

| effect of a mutation on the interaction | Variant |
| --- | --- |
| disrupting interaction | L646A |
